From patent publication US7794927B2, “Method for identifying agonists or antagonists of the G-protein coupled receptor mas-like 1” (priority 2002, dated 2010)
Ends that are not written are not given here.

How the values were obtained:
[1] = biological target: T1, G protein-coupled receptor mas-like 1 (Homo sapiens, UniProt Q96LB1); assay: FLIPR assay of stimulation of mas-like 1 transiently expressed in CHO-K1 cells (Fluo4 Ca2+ fluorescence); format: cell-based; settings: for agonistic effects on mas-like 1: test system designed in accordance with the detection method; for formation of fluorescence in the cells: CHO-K1 cells transiently expressing mas-like 1, zero value about 20 fluorescence intensity units
T1 construct: The receptor has therefore been amplified starting from genomic DNA using a polymerase chain reaction (PCR); expressed in transfected cells; host or cells: CHO-K1 (transient, pcDNA3.1)
T1 sequence (Q96LB1 1-330): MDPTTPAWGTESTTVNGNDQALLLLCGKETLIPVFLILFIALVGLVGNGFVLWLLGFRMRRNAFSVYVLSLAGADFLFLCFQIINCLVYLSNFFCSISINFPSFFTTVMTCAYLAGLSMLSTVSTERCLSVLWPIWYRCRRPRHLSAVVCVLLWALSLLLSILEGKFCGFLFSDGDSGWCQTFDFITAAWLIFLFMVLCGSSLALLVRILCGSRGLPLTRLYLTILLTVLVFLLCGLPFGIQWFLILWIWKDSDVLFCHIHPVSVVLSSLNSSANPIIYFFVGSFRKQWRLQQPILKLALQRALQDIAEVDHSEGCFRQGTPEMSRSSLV
Method: CHO-K1 cells were cultivated in basal Iscove's medium supplemented with 10% fetal bovine serum, 10 000 U/ml-10 000 μg/ml penicillin-streptomycin, gentamycin and 2 mM glutamine.
Iscove's medium is commercially available inter alia from Biochrom, Berlin. The composition of Iscove's medium is described in “Iscove, N. N., Melchers, F., Journal of Experimental Medicine 147, 923-933 (1978)”. The CHO-K1 cells were applied in an amount of 2×10^5 cells to a 35 mm culture dish for the transient transfection. The cells were transfected after incubation for about 24 hours or at a confluence of 50-80% with 2 μg of DNA using Lipofectamine reagent which is commercially available inter alia from Invitrogen Life Technologies, Karlsruhe.
About 16 to 18 hours after the transfection, the cells were transferred into 96-well microtiter plates with a density of about 80 000 cells per well. Incubation was then continued for 18 to 24 hours. After this, 95 μl of HBSS (Hank's buffered saline solution) which contained 20 mM HEPES, 2.5 mM probenecid, 4 μM Fluo4 and 1% fetal bovine serum were added, and incubation was carried out in the presence of 5% CO2 at 37° C. for 1 hour. Fluo4 is a dye which fluoresces in the presence of Ca^2+. Fluo4 is sold commercially inter alia by Molecular Probes Europe BV, Leiden. After the incubation, the cells were washed three times with PBS (phosphate buffered saline) which contained 1 mM MgCl2, 1 mM EDTA and 2.5 mM probenecid.
After the last washing step, about 100 μl of the solution were left on the cells in each well. The peptides to be tested were dissolved in water or DMSO (dimethyl sulfoxide) in a concentration of 2 mM. The appropriate dilutions of the final concentration ([…]) were prepared starting from such a stock solution. The fluorescence was measured using a FLIPR (Fluorometric Imaging Plate Reader; Molecular Devices GmbH, Ismaning) for a total of 3 minutes at 1-second intervals for the first minute and at 3-second intervals during the second and third minute. The measurements between 18 seconds and 37 seconds were used to determine the agonistic effect.
Various peptides were tested for their property of stimulating the G protein-coupled receptor mas-like 1. The test was carried out using FLIPR technology. The receptor was for this purpose transiently expressed in CHO-K1 cells.

[2] = biological target: T1, G protein-coupled receptor mas-like 1; assay: Arachidonic acid liberation in transiently transfected CHO-K1 cells; format: cell-based

| Substance | agonistic effects on mas-like 1 [1] | formation of fluorescence in the cells [1] | liberation of arachidonic acid [2] | concentration dependence of activation of the receptors ([1]; concentration range from 5×10^−6 to 1×10^−5M) |
| --- | --- | --- | --- | --- |
| substance P4-11: fragment of substance P, SEQ ID NO:11 (PQQFFGL; listed as Homo sapiens) | Agonistic effects were shown |  |  |  |
| H-Phe-Leu-Phe-Gln-Pro-Gln-Arg-Pro-NH2 (H-FLFQPQRP-NH2; listed as Homo sapiens) [neuropeptide FF, natural ligand of mas-like 1] |  | ca. 2 000 fluorescence intensity units |  |  |
| substance P1-9: N-terminal fragment of substance P, SEQ ID NO:12 (RPKPQQFFG; listed as Homo sapiens) | Agonistic effects were shown |  |  |  |
| PKPQQFFGLM [substance P2-11] |  | ca. 2 500 fluorescence intensity units | liberated arachidonic acid | linear dependence |
